Test results as given in PMC5378476, “Mechanism of ribosome rescue by ArfA and RF2” (eLife, 2017).

Target: T1, release factor RF2 (E. coli K12, UniProt P07012 1-365)
T1 construct: Peptide chain release factor RF2, E. coli K12 strain; SPF motif at 205-207, GGQ motif at 250-252, switch loop aa 315-323; source: purified as described (Korostelev et al., 2008; Laurberg et al., 2008)
T1 sequence: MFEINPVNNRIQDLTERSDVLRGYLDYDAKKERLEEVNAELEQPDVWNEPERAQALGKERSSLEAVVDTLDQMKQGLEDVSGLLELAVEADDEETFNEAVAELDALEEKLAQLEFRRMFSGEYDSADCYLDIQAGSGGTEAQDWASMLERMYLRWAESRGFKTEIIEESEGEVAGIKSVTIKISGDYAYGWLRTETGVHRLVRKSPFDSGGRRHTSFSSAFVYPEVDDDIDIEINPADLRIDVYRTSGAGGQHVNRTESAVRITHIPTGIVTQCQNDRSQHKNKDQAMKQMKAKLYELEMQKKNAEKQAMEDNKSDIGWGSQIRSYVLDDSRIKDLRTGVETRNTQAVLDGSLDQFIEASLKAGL
Assay: cryo-EM structure; 70S•mRNA•tRNAfMet•ArfA•RF2 complex reconstituted in vitro from 30S and 50S subunits, mRNA truncated after the P-site AUG; 20 mM Tris-HCl pH 7.0, 100 mM NH4Cl, 20 mM MgCl2, 0.5 mM EDTA, 6 mM βME; on grids ~0.45 µM 70S, 10 µM ArfA, 10 µM RF2; two classes (Structure I, compact RF2; Structure II, extended RF2) from one dataset
Details: both partners purified

B1: ArfA (alternative rescue factor A) (natural protein, E. coli, UniProt P36675 1-60, looked up)
chain: MSRYQHTKGQIKDNAIEALLHDPLFRQRVEKNKKGKGSYMRKGKHGNRGNWEASGKKVNH
notes: ArfA, E. coli, gene from the ASKA Clone(-) library; the forward primer starts at the first ATG of the gene after the His6 codons, the reverse primer ends at the codon of residue 60; The natural protein is longer than 60 residues; the construct is cut short at the C-terminus; No density for the His6 tag in the maps; source: E. coli BLR/DE3, pET24b+, purified (Ni-NTA, ion exchange, size exclusion); …
binding result: binds
